Measured values reported in paper PMC2722981.

Molecular target: PCBP1 KH1/2 (mouse, UniProt P60335 13-170)
Assay: filter binding

Chain of PCBP1 KH1/2 (P60335 13-170): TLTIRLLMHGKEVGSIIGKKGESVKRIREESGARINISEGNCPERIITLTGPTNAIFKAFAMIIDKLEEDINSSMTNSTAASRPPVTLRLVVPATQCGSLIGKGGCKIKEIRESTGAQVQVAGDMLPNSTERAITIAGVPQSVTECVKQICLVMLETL

B1: R7a1 (structured_RNA)
RNA: GGAGUGACCUUCUCAACUUUAUAUUCCCUUUACCCCUUCCCCCAAGGCACU
- Kd: 42.3 ± 12 nM
